Source: publication PMC6929137, “Thrombin Aptamer-Modified Metal–Organic Framework Nanoparticles: Functional Nanostructures for Sensing Thrombin and the Triggered Controlled Release of Anti-Blood Clotting Drugs”

Tests used:
[1] = target: vascular endothelial growth factor 165 (VEGF) (human, UniProt P15692-4 27-191); experiment: strand-displacement release of rhodamine 6G and Apixaban from gated NMOFs (fluorescence); 1 uM protein; background release only; 10 mM HEPES pH 7.4, 20 mM NaCl, 10 mM KCl, 10 mM MgCl2; 30 min; temperature not stated; conditions: protein: commercial; chain copies: 2; label: none on DNA; read-out is released rhodamine 6G or Apixaban fluorescence; 11 bp duplex, 5' overhang 8 nt on aptamer strand
thrombin = thrombin (UniProt P00734;P00734 328-363;364-622); experiment: strand-displacement release of rhodamine 6G from gated NMOFs (fluorescence); thrombin 0.25-1 uM; 10 mM KCl, 10 mM MgCl2; competes with anchor strand (1); 10 mM HEPES pH 7.4, 20 mM NaCl, 10 mM KCl, 10 mM MgCl2; 30 min; temperature not stated

Sequence of vascular endothelial growth factor 165 (VEGF) (P15692 other isoform, or with tags, fused parts or gaps): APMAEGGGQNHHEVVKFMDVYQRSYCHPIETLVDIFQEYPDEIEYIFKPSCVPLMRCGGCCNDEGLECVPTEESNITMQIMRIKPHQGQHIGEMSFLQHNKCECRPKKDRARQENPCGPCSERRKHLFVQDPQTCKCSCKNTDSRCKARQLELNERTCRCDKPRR

B1: thrombin aptamer (2) hybridized to anchor (1) on UiO-68 NMOFs (mixed)
DNA: GGTTGGTGTGGTTGGTTTT
?: AAAACCAACCA
modifications: strand 2 (anchor): 5'-NH2-(CH2)6, DBCO-modified, clicked to azide-functionalized UiO-68 NMOF
B1: no binding [1]; binds (thrombin).
